# B1: Inactive GOX: heat treated glucose oxidase, rendered substantially inactive due to the application of heat (protein, UniProt P13006 17-605, looked up)
# Glucose oxidase: LPHYIRSNGIEASLLTDPKDVSGRTVDYIIAGGGLTGLTTAARLTENPNISVLVIESGSYESDRGPIIEDLNAYGDIFGSSVDHAYETVELATNNQTALIRSGNGLGGSTLVNGGTWTRPHKAQVDSWETVFGNEGWNWDNVAAYSLQAERARAPNAKQIAAGHYFNASCHGVNGTVHAGPRDTGDDYSPIVKALMSAVEDRGVPTKKDFGCGDPHGVSMFPNTLHEDQVRSDAAREWLLPNYQRPNLQVLTGQYVGKVLLSQNGTTPRAVGVEFGTHKGNTHNVYAKHEVLLAAGSAVSPTILEYSGIGMKSILEPLGIDTVVDLPVGLNLQDQTTATVRSRITSAGAGQGQAAWFATFNETFGDYSEKAHELLNTKLEQWAEEAVARGGFHNTTALLIQYENYRDWIVNHNVAYSELFLDTAGVASFDVWDLLPFTRGYVHILDKDPYLHHFAYDPQYFLNELDLLGQAAATQLARNISNSGAMQTYFAGETIPGDNLAYDADLSAWTEYIPYHFRPNYHGVGTCSMMPKEMGGVVDNAARVYGVQGLRVIDGSIPPTQMSSHVMTVFYAMALKISDAILEDYASMQ
# modifications: heat-inactivated
# Test system: tobacco leaves (Nicotiana tabacum)
# Test: Treatment of individual tobacco leaves with test solutions, nicotine reduction
# Format: in vivo
# Details: incubated for about 3 days
molecule,measurement,value
B1,Reduction of Nicotine,0.1 mg/g

# From patent US20050113256A1, “Methods of reducing the nicotine content of tobacco plants and tobacco plants obtained thereby” (priority 2003, published 2005)
